# From US20090137002A1 (published 2009)
# T1: recombinant human EphB4-Fc fusion protein (human, UniProt P54760 16-539)
# T1 construct: extracellular domain; also called hEphB4; hu EphB4-Fc
# T1 sequence (looked up): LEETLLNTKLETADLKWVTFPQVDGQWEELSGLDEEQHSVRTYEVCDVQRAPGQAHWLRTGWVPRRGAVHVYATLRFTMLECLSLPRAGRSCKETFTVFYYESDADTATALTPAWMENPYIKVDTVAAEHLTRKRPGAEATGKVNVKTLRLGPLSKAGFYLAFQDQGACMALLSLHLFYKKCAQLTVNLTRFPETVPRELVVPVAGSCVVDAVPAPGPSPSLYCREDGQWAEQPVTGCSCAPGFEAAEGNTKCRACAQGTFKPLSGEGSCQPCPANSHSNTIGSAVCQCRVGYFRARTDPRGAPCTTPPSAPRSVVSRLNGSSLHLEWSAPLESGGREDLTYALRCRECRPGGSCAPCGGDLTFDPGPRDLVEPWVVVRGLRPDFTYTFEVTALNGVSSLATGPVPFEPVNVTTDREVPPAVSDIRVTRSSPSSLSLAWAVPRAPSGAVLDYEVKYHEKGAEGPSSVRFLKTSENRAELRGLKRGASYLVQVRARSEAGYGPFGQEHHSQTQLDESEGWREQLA
# T2: recombinant murine EphB4-Fc fusion protein (mouse, UniProt P54761 16-539)
# T2 construct: extracellular domain; also called mEphB4; mu EphB4; not shown: Fc part, not described
# T2 sequence (looked up): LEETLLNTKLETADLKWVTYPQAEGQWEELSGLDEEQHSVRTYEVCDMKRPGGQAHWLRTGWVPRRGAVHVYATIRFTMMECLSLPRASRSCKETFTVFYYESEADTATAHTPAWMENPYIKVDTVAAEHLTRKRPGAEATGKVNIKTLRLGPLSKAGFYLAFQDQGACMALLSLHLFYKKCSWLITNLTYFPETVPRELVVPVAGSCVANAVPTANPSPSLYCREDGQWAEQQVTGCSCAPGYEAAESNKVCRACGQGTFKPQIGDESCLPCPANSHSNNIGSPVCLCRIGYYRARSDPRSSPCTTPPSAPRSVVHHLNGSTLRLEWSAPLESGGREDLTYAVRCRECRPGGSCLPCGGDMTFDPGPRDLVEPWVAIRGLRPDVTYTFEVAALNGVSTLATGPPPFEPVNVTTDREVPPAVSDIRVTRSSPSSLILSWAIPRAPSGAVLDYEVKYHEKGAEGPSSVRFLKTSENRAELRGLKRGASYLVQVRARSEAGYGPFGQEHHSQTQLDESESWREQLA
# T3: myc-tagged human EphB4 on transfected CHO cells (human, UniProt P54760 16-987)
# T3 construct: whole, on cells; also called CHO-EphB4; CHO-hEphB4; not shown: myc tag
# T3 sequence (looked up): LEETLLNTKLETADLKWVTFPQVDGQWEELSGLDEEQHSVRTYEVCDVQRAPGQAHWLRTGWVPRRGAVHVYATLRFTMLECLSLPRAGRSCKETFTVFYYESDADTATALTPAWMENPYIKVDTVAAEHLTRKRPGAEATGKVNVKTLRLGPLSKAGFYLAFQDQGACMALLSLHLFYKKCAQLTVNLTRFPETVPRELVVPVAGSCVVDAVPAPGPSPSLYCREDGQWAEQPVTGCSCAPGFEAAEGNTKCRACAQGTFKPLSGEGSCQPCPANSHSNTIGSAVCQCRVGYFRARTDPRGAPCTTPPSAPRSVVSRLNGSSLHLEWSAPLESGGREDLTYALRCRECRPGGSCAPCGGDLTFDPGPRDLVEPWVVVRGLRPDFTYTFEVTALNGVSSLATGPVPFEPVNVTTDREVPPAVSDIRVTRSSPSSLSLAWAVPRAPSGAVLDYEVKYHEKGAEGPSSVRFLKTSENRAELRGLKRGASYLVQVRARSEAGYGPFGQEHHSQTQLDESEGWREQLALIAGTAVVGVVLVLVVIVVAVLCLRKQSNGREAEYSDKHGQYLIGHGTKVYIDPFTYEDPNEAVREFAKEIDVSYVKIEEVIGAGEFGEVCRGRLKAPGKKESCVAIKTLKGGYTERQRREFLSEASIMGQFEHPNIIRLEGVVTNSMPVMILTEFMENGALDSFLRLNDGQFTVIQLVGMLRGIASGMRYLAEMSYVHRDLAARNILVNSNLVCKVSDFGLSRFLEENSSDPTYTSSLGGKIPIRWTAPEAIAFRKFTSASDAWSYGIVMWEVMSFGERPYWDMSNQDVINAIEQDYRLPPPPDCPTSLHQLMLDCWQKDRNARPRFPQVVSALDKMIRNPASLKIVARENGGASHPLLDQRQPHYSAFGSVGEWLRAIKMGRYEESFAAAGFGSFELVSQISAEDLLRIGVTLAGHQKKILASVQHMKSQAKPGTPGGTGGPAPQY
# B1: MOR03639 Fab (Fab, V domains shown)
# VH: QVQLVESGGGLVQPGGSLRLSCAASGFTFSNYYLHWVRQAPGKGLEWVSGISYSGSSTYYADSVKGRFTISRDNSKNTLYLQMNSLRAEDTAVYYCARFYQRRQIPHGYDVWGQGTLVTVSS
# VL: DIELTQPPSVSVAPGQTARISCSGDNIGDYYVHWYQQKPGQAPVLVIYRDSNRPSGIPERFSGSNSGNTATLTISGTQAEDEADYYCGSYDMPFGGTVFGGGTKLTVLG
# notes: Monomeric HuCAL Fab (VH3, lambda3), purified, MH-tagged
# B2: MOR03641 Fab (Fab, V domains shown)
# VH: QVQLVQSGAEVKKPGSSVKVSCKASGGTFSTYAISWVRQAPGQGLEWMGRIIPIFGTANYAQKFQGRVTITADESTSTAYMELSSLRSEDTAVYYCARSSYTILTTYYNYNAMDNWGQGTLVTVSS
# VL: DIQMTQSPSSLSASVGDRVTITCRASQNINNFLNWYQQKPGKAPKLLIYGSSILQSGVPSRFSGSGSGTDFTLTISSLQPEDFAVYYCHQVSDTSDTFGQGTKVEIKR
# notes: Monomeric HuCAL Fab (VH1A, kappa1), purified, MH-tagged; also called 3541 [sic]
# B3: MOR03640 Fab (Fab, V domains shown)
# VH: QVQLVESGGGLVQPGGSLRLSCAASGFTFNNSWMSWVRQAPGKGLEWVSNITSSSSMTHYADSVKGRFTISRDNSKNTLYLQMNSLRAEDTAVYYCARKGMSFYNNKYAKSMFDLWGQGTLVTVSS
# VL: DIELTQPPSVSVAPGQTARISCSGDNLGKKYVHWYQQKPGQAPVLVIYYDSKRPSGIPERFSGSNSGNTATLTISGTQAEDEADYYCSAWTTTMMHIVFGGGTKLTVLG
# notes: Monomeric HuCAL Fab, purified, MH-tagged
# Target: T1, recombinant human EphB4-Fc fusion …
# Assay: Biacore, EphB4-Fc on chip
# Experimental: (§1) The affinity of the antibody fragments was determined using BIACORE™ analysis and cell ELISA. The Biacore chip was coated with recombinant human or murine EphB4-Fc fusion protein.
row,Kd,Binder
1,13 nM,B1
2,35 nM,B2
3,1.8 nM,B3

# Target: T2, recombinant murine EphB4-Fc fusion …
# Assay: Biacore, EphB4-Fc on chip
# Experimental: as §1
row,Kd,Binder
1,43 nM,B1
2,151 nM,B2
3,4 nM,B3

# Target: T3, myc-tagged human EphB4 on transfected …
# Assay: FACS, Fab against EphrinB2-Fc on hEphB4-transfected cells
# Experimental: IC₅₀ values were determined using recombinant antigen (murine and human EphB4) in an ELISA and on transfected cells in a FACS analysis (human EphB4 receptor).
# Binding of (a fixed concentration of) the ligand EphrinB2-Fc to immobilized EphB4 receptor on an ELISA plate or on transfected cells is titrated with anti-EphB4 Fab. The IC₅₀ is determined as the amount of Fab at which the binding of EphrinB2 is inhibited by 50%.
row,IC50,Binder
1,2.8 µg/mL,B1
2,4.4 µg/mL,B2
3,2.1 µg/mL,B3

# Target: T3, myc-tagged human EphB4 on transfected …
# Assay: FACS competition on CHO-hEphB4 cells, competitor biotinylated mEphrinB2 250 ng/mL
# Experimental: CHO-hEphB4 cells were trypsinized, washed and resuspended in FACS buffer (PBS/1% BSA) containing anti-EphB4 antibody at different concentrations and incubated at 4° C. for 30 min. Cells were washed in FACS buffer and resuspended in FACS buffer containing biotinylated mEphrinB2 at 250 ng/mL and incubated at 4° C. for 1 hr. cells were washed in FACS buffer and resuspended in FACS buffer containing Streptavidin-PE and incubated at 4° C. for 30 min. After a final wash step, cell staining was analyzed in a Becton Dickinson FACS.
row,IC50 (read off the curve),Binder
1,~2 µg/mL,B1
2,~1 µg/mL,B2
3,~0.4 µg/mL,B3
